The values below come from patent US20220119523A1, “TREATMENT OF CUTANEOUS T CELL LYMPHOMA WITH TARGETING OF CD47 PATHWAY” (The Board of Trustees of the Leland Stanford Junior …, priority 2019, published 2022).

Test [1] has as its system newly diagnosed AML patients 65 years or older. The conditions noted are these: 75 mg/m^2 per day SC for 7 consecutive days per 28-day cycle, at least 6 cycles; conventional care regimens 6.5 months; cited from earlier work.
A further test has as its system HH. Briefly: In vitro phagocytosis assay, HH cell line. Format: cell-based, human. Conditions: HH cells; macrophage from NOD scid gamma mice (NSG); vs IgG4 control antibody; FIG. 2A-2B. The procedure: (§1) Cancer Cells. HH (CTCL lymphoblast ATCC); HuT78 (Sezary Syndrome CTCL, ATCC); HuT102 (Mycosis Fungoides CTCL, ATCC); and MJ (Mycosis Fungoides CTCL, ATCC) were cultured in RPMI (ThermoFisher S.) (DLD1), EMEM (ThermoFisher S.) (CACO-2, LS174T), McCoy's 5A (ThermoFisher S.) (HT29, HCT116), or Leibovitz's L-15 (ThermoFisher S.) (SW48, SW 620) supplemented with 10% fetal bovine serum (Omega Scientific), 100 U/mL penicillin and 100 μg/mL streptomycin (ThermoFisher S.)
In Vitro Phagocytosis Assay. Peripheral blood mononuclear cells were enriched by density gradient centrifugation and monocytes were purified with anti-CD14 microbeads (Miltenyi) and differentiated to macrophages by culture for 7-10 days in IMDM+GlutaMax (Invitrogen) supplemented with 10% AB-Human Serum (Invitrogen) and 100 U/mL penicillin and 100 μg/mL streptomycin (Invitrogen). Phagocytosis assays were performed by co-culture of 50,000 macrophages with 100,000 CTCL tumor cells for 2 hours, then analyzed using an LSRFortessa cell analyzer with high throughput sampler (BD Biosciences). Antibodies used for treatment included: IgG4 isotype control, anti-CD47—clone magrolimab (Stanford). Macrophages were identified by flow cytometry using anti-CD206 antibody. […] Phagocytosis was evaluated as the percentage of GFP+ macrophages and was normalized to the maximal response by each independent donor against each cell line.

The next test concerns HUT78. Briefly: In vitro phagocytosis assay, HUT78 cell line. It is filed as cell-based, human. Conditions: HUT78 cells; macrophage from NOD scid gamma mice (NSG); vs IgG4 control antibody; FIG. 2A-2B.
A further test deals with CTCL tumor cells. Briefly: In vitro phagocytosis assay, co-culture of macrophages with CTCL tumor cells. It is filed as cell-based, human. Conditions: for phagocytosis (percentage of GFP+ macrophages): 2 hours co-culture. The method, then:
as §1
In Vitro Phagocytosis Assay. Peripheral blood mononuclear cells were enriched by density gradient centrifugation and monocytes were purified with anti-CD14 microbeads (Miltenyi) and differentiated to macrophages by culture for 7-10 days in IMDM+GlutaMax (Invitrogen) supplemented with 10% AB-Human Serum (Invitrogen) and 100 U/mL penicillin and 100 μg/mL streptomycin (Invitrogen). Phagocytosis assays were performed by co-culture of 50,000 macrophages with 100,000 CTCL tumor cells for 2 hours, then analyzed using an LSRFortessa cell analyzer with high throughput sampler (BD Biosciences). Antibodies used for treatment included: IgG4 isotype control, anti-CD47—clone magrolimab (Stanford). Macrophages were identified by flow cytometry using anti-CD206 antibody. Dead cells were excluded from the analysis by staining with DAPI (Sigma). Phagocytosis was evaluated as the percentage of GFP+ macrophages and was normalized to the maximal response by each independent donor against each cell line.

Another test has as its system HH tumor cells. The test can be described thus: Xenograft tumor model, HH cells in NSG mice. It is filed as in vivo. Conditions: 250 μg intraperitoneal every other day, vs PBS. The procedure:
(§2) Mice. 6-8 week old NSG (NOD.Cg-Prkdcscid Il2rgtm1Wjl/SzJ) mice were used.
(§3) Xenograft Tumor Models. […] For all treatments, antibodies where administered by intraperitoneal injection (100 μl) as follows: PBS and […] (250 μg) every other day. Tumor volume and survival was monitored.

For a further test, the system named is HuT78 tumor cells. Briefly: Xenograft tumor model, HuT78 cells in NSG mice. It is filed as in vivo. Conditions: 250 μg intraperitoneal every other day, vs PBS. The procedure: as §2, §3

On to `Nc1ncn([C@@H]2O[C@H](CO)[C@@H](O)[C@H]2O)c(=O)n1` [azacitidine], for which the “Median OS” value in test [1] is listed as 10.4 months.

B1: Magrolimab: monoclonal antibody designed to block CD47; specifically binds human CD47; humanized 5F9 with IgG4 (antibody, chains of the INN, looked up, V domains shown)
VH: QVQLVQSGAEVKKPGASVKVSCKASGYTFTNYNMHWVRQAPGQRLEWMGTIYPGNDDTSYNQKFKDRVTITADTSASTAYMELSSLRSEDTAVYYCARGGYRAMDYWGQGTLVTVSS
VL: DIVMTQSPLSLPVTPGEPASISCRSSQSIVYSNGNTYLGWYLQKPGQSPQLLIYKVSNRFSGVPDRFSGSGSGTDFTLKISRVEAEDVGVYYCFQGSHVPYTFGQGTKLEIK
As for B1, the “phagocytosis (percent of phagocytosis / percent of maximum phagocytosis)” value in the test on HH and in the test on HUT78 was “increased phagocytosis” each time. Further, the “phagocytosis (percentage of GFP+ macrophages)” value in the test on CTCL tumor cells (human macrophages (FIG. 2B)) and in the test on CTCL tumor cells (mouse macrophages (FIG. 2A)) was “significant increase in phagocytosis” each time. Also, the tumor volume entry with HH tumor cells (FIG. 4A) and with HuT78 tumor cells (FIG. 5A) was “reduced” each time. The survival entry in the test on HH tumor cells (FIG. 4B) and with HuT78 tumor cells (FIG. 5B) was “improved” each time.

B2: anti-CCR4: antibody that corresponds to mogamulizumab, a defucosylated anti-CCR4 humanized IgG1 antibody binding the N-terminal domain of CCR4 (antibody, chains of the INN, looked up, V domains shown)
VH: EVQLVESGGDLVQPGRSLRLSCAASGFIFSNYGMSWVRQAPGKGLEWVATISSASTYSYYPDSVKGRFTISRDNAKNSLYLQMNSLRVEDTALYYCGRHSDGNFAFGYWGQGTLVTVSS
VL: DVLMTQSPLSLPVTPGEPASISCRSSRNIVHINGDTYLEWYLQKPGQSPQLLIYKVSNRFSGVPDRFSGSGSGTDFTLKISRVEAEDVGVYYCFQGSLLPWTFGQGTKVEIK
On to B2, for which the “phagocytosis, combination of anti-CD47 and anti-CCR4” value in the test with CTCL tumor cells (FIG. 3A-3B, combined antibodies) was “synergizes with anti-CD47 antibody”. Also, the “phagocytosis, antibody by itself” value with CTCL tumor cells (FIG. 3A-3B, single agent) is “little or no effect on phagocytosis”.
